± gives the standard deviation of the averaged measurements.
System: ATP
Experiment: switch fluorescence ratio, 500 uM ATP over buffer (Cy3 cluster intensity, sum of 5 cycles each) (fold (ratio)); higher = stronger signal-on switching upon ATP binding; sequences stand for … in TCGTCGGCAGCGTCAGATGTGTATAAGAGACAGTTTTTTTTTTTTTTTTTTTTTTTTT…TC
Conditions: aptamer strand: ATP DNA aptamer (quencher-CACCTGGGGGAGTATTGCGGAGGAAGG + anchor), 100 nM annealed; ATP concentration: 500 uM
Method in brief: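 Switching-strand clusters labelled with Cy3 on a modified Illumina MiSeq flow-cell were annealed to 100 nM quencher-labelled ATP aptamer, imaged in selection buffer, and re-imaged after 15 min with 500 uM ATP at 22 °C. This was done over five cycles with NaOH stripping and re-annealing in between. The fluorescence ratio is summed target-cycle over summed buffer-cycle Cy3 intensity per cluster, averaged per switch-domain sequence, excluding clusters outside 100-1000 RFU.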
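Note: ATP exposure 15 min at 22 °C before imaging.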

Sequence | switch fluorescence ratio
TCTTCTAA | 0.9972 ± 0.0047
ATAATTTGCC | 1.01 ± 0.05
CAATGTAGGG | 1.004 ± 0.0077
TTATTAAAAT | 0.997 ± 0.021
CGGGGGGTAA | 1.01 ± 0.029
TCACCTTGTT | 1.03 ± 0.037
TACTTTTATT | 1.026 ± 0.0066
CAAGATCGGC | 1.01 ± 0.079
GAAGTAGTTT | 0.98 ± 0.089
GGTGACAGGC | 1.04 ± 0.08
TTGTAGGACC | 1 ± 0.056
ACGGCTGTCA | 0.999 ± 0.025
AAAGAATGGG | 0.978 ± 0.017
CGGTATAAGG | 0.982 ± 0.046
ACTTCACTGC | 1.34 ± 0.042
GGTTCGAGAG | 0.964 ± 0.012
CAAATTTGAT | 1.03 ± 0.027
GAATCATGTT | 0.9915 ± 0.0065
ACGATTGTGG | 0.983 ± 0.014
AGCGGATTGT | 1 ± 0.02
GAGGGATAAA | 1.003 ± 0.0018
TGTAAATAAG | 0.991 ± 0.043
GGGGCTAGAG | 1.4 ± 0.77

Sequence | switch fluorescence ratio
TTTTGAATTT | 0.996 ± 0.032
CGACGGAAGG | 1.25 ± 0.06
CGGTACGAAT | 1.034 ± 0.0096
CTGGCTTTGG | 1.05 ± 0.043
AGTAACCAAA | 1.04 ± 0.097
ACGGGTGACC | 1.03 ± 0.032
CCTTATCCG | 1.07 ± 0.068
AGGGGGCGAG | 0.988 ± 0.018
AGCTGGGAAG | 0.982 ± 0.021
ATATTTTTAT | 0.987 ± 0.0082
TAGTGATTGC | 0.988 ± 0.025
ATAGGTATGA | 0.988 ± 0.01
TAGGCTAGGG | 0.9713 ± 0.0062
GAACTCGATG | 1.018 ± 0.0091
CCGCGGCTTG | 1.12 ± 0.053
AGGGCCTCTT | 0.986 ± 0.028
AAAGTCGTTC | 0.977 ± 0.028
GAATTATGTT | 1.01 ± 0.004
TGTAGTTGTG | 1.02 ± 0.061
GTGTTCGGGG | 0.998 ± 0.021
ATTATATGAC | 1.06 ± 0.05
GGGGAATTCA | 1.04 ± 0.046
TAGAGGCTGC | 0.958 ± 0.042

Sequence | switch fluorescence ratio
GACTATTAGG | 0.989 ± 0.029
AACTGCAAGT | 0.993 ± 0.027
AATTTTTTCG | 0.992 ± 0.025
AGCACTTTTC | 1.0192 ± 0.00082
CGCTCTGCGT | 1.01 ± 0.033
CGAGGTAGTT | 0.975 ± 0.026
CGTTTTTGTT | 1 ± 0.025
CTCAGGACAG | 0.995 ± 0.044
ACAATTGCTA | 0.994 ± 0.03
TGAGAATTTG | 0.976 ± 0.048
AGTTTGTGGC | 0.965 ± 0.012
GAAGGTATTT | 0.9517 ± 0.0056
CATCCTTTAA | 1.007 ± 0.0082
CCCGGGTAGG | 1.041 ± 0.0026
ACGGACATGG | 1.08 ± 0.017
GTGCATGGGG | 1.02 ± 0.0056
GCTGGAAAGG | 1.01 ± 0.079
GTTCCGGGGA | 1.02 ± 0.016
AAGAGCGGTG | 0.952 ± 0.0049
GACGGGGCCC | 1 ± 0.013
GGATGTGAGC | 0.983 ± 0.021
GGTATTTGTT | 1.01 ± 0.032
TTAGGGGTCT | 1.03 ± 0.019

Sequence | switch fluorescence ratio
TTTCGGAGCC | 1.16 ± 0.24
ATTTAGCTTA | 1.0052 ± 0.00027
TGCCGGACCG | 1.02 ± 0.033
TGATTGTATG | 1.01 ± 0.011
GAGAAAGCCC | 1 ± 0.015
ATGGTTTAGG | 0.988 ± 0.038
TCGGACACAT | 1.07 ± 0.03
GGATTTCATG | 1.07 ± 0.12
CTTGGTGTAT | 1.03 ± 0.086
GGGCTTCAGA | 0.987 ± 0.023
CCTGTTTGTT | 0.967 ± 0.038
ACACTGCCGG | 1.04 ± 0.026
AGAATTCAAC | 1.003 ± 0.004
TCTGGGAGAA | 0.992 ± 0.042
CGCTGGTTGT | 0.9855 ± 0.0013
CACATGTGCC | 1.01 ± 0.021
TTTGGCAGTC | 1.1 ± 0.13
CATTTGTGGT | 1.02 ± 0.014
TATTCGATTT | 1.032 ± 0.0016
GTGTCTGTTG | 0.981 ± 0.02
GCGTTAGTAG | 0.9971 ± 0.0082
AAGTTTAGAA | 1 ± 0.012
CGGGGCCGGG | 0.996 ± 0.017

Sequence | switch fluorescence ratio
AGGGTCGGAC | 1.01 ± 0.012
AGGGTTTGCT | 0.96929 ± 0.00044
GCCTGCCGTT | 0.996 ± 0.033
AAAGTCCTA | 0.982 ± 0.015
AATGTTCAAA | 0.995 ± 0.023
CTTTTTGAGG | 0.983 ± 0.048
GCTTCAAGTT | 0.985 ± 0.027
TTTTGACTTG | 0.948 ± 0.0044
CGATGTTTAG | 0.986 ± 0.019
TAAAGCATGG | 0.98 ± 0.019
TACAGGATGG | 0.9694 ± 0.0057
GAGGGGGGTA | 0.989 ± 0.02
CTAGAATAGG | 0.985 ± 0.028
TTAGTGGATT | 0.9958 ± 0.0073
CGGTGGCTTC | 1.003 ± 0.0026
TTTGCTTTCT | 1.02 ± 0.023
AGAGTCCGCT | 1.18 ± 0.084
AGGCGCTAT | 1.04 ± 0.021
ATACTGTCGC | 1.0874 ± 0.0002
GTAAATTTTT | 1.01 ± 0.017
CATATATGTC | 1 ± 0.056
GACTGGCTT | 0.9868 ± 0.0073
ACAGAAGCTT | 1.03 ± 0.015

Sequence | switch fluorescence ratio
GATAGACGGA | 0.99171 ± 0.00018
TAAATGGGGG | 0.979 ± 0.034
TGGGTTAGGG | 1.03 ± 0.044
AAATGGGAGG | 0.996 ± 0.032
GGGGTTTGTG | 0.997 ± 0.037
GGGTTGTGGG | 1 ± 0.043
CTGGGTATGA | 1.01 ± 0.024
TGGCGTGTTA | 1.02 ± 0.044
TTCCAGTATT | 1.05 ± 0.049
CTGGCTAGGC | 1 ± 0.014
TTTCCCGAGG | 1.51 ± 0.55
CCACTTTGGG | 1 ± 0.069
CTAATATTAA | 0.999 ± 0.018
GTAAAGAAAA | 1.05 ± 0.081
TAGTTGATAA | 0.996 ± 0.018
GAAGAAGTAA | 1.03 ± 0.013
TCCATAGTGA | 1.26 ± 0.085
TTACGGGTAA | 0.99 ± 0.01
GTCGGTACGG | 1 ± 0.026
TTTTGTCATT | 1 ± 0.04
CAGGGGCACG | 1.06 ± 0.04
GGGGATGTTT | 0.958 ± 0.039
ATGTTTGGCC | 1.04 ± 0.041

Sequence | switch fluorescence ratio
CGGGACGGCA | 1.01 ± 0.017
TTGCTTCAGC | 0.994 ± 0.097
TATAGCCCGT | 1.02 ± 0.016
TTATTTAGCA | 0.987 ± 0.038
TGGATCTCAG | 0.982 ± 0.012
GCGACTAGGC | 1.03 ± 0.068
TAGGTGAGTT | 1.04 ± 0.047
GTGAAGAAGG | 1.13 ± 0.2
CACTTCATTT | 1.01 ± 0.013
CAGGTCACTG | 0.965 ± 0.044
TAAACTCCA | 1.05 ± 0.042
ATTGCGTGGT | 0.986 ± 0.024
AATGCGCCAG | 1.03 ± 0.025
GTTGTGCGTA | 0.994 ± 0.031
TGGTTTTTTG | 0.996 ± 0.017
CTACGATCGA | 1.02 ± 0.015
GACCTCAGGT | 1.08 ± 0.11
AATGTGCCTT | 1.056 ± 0.0057
CCACATCCAT | 1.044 ± 0.01
